Values quoted from earlier work in patent US12305200B2, “Methods and compositions for vault nanoparticle immobilization of therapeutic molecules and for vault targeting” (AUKERA, INC., priority 2017, dated 2025).

Molecular target: GRP-R (Homo sapiens, UniProt P30550)
Details: Accardo et al., EJNMMI Research 2016

Sequence of GRP-R (P30550 whole entry): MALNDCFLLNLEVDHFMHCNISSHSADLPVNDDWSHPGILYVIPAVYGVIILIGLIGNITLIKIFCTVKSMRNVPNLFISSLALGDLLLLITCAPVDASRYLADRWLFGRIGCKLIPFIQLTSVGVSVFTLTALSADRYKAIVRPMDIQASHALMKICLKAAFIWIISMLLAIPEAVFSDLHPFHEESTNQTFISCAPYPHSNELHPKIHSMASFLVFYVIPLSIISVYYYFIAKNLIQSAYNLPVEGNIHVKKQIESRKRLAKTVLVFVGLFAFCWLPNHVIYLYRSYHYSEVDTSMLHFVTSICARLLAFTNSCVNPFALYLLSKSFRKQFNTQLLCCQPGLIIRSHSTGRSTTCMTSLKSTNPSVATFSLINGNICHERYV

affinity for the GRP-R: has been found to have affinity
Substance: Gin-Trp-Ala-Val-Gly-His-Leu-Met (SEQ ID NO.: 3)-NH2 [8-amino acid peptide of the ligand GRP]
